From patent US20210054094A1 (Hoffmann-La Roche, published 2021) come the findings set out here.

Test [1] concerns the target T1, human GPRC5D (human, UniProt Q9NZD1 1-345). In words: cell-based or functional assay.
For test [2], the target named is T1, human GPRC5D. In words: cell-based or functional assay. The source holds these as a separate data set.
The target in test [3] is T2, B-cell maturation antigen (BCMA) (UniProt Q02223 1-184, limits assumed).
T2 sequence (looked up): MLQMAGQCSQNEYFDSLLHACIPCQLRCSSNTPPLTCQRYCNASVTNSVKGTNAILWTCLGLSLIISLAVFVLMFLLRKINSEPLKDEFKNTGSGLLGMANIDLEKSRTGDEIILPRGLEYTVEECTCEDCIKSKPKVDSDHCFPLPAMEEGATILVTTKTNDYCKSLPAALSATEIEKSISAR
The test can be described thus: cell-based or functional assay.

Test [4] concerns the target T3, human GPRC5A (human, UniProt Q8NFJ5 1-357).
T3 construct: whole, on cells; also called hu GPCR5A
In words: cell ELISA on stably transfected CHO cells. The method, then:
Stable transfected CHO clones expressing either human GPRC5D or cynomolgus GPRC5D or murin GPRC5D or human GPRC5A were used to analyze the binding of potential lead candidate antibodies as IgGs. In detail, 10⁴ cells (viability≥98%) were seeded into 384 well-microtiter plates (BD Poly D-Lysin, #356662, volume: 25 μl/well) using fresh culture medium. After overnight incubation at 37° C., 25 μl/well dilutions of antibodies were added (15×1:3 dilutions in 1×PBS, assay conc. starts at 30 μg/ml) to the cells for 2 hours at 4° C. After one washing step using 90 μl/well PBST (10×PBS, Roche, #11666789001+0.1% Tween 20), cells were subsequently fixed by the addition of 50 μl/well 0.05% glutharaldehyde (Sigma Cat. No: G5882 in 1×PBS) for 10 min at room temperature (RT). After three additional washing steps using 90 μl/well PBST, secondary antibodies were added for detection: for human antibodies goat anti-human Ig κ chain antibody HRP conjugate (Millipore #AP502P) diluted 1:2000 in blocking buffer (1×PBS (Roche #11666789001)+2% BSA (Bovine Serum Albumin Fraction V, fatty acid free, Roche, #10735086001)+0.05% Tween 20) was used (25 μl/well). […] After incubation for 1 h at RT and three additional washing steps using 90 μl/well PBST, 25 μl/well TMB substrate was added (Roche order no. 11835033001) for 10 min and color development to final ODs was determined by measurement at 370 nm/492 nm.
Cynomolgus crossreactivity was also detected for all other antibodies but at lower levels compared to 10B10 and 07A04 (FIG. 9). No significant binding to CHO cells expressing murine GPRC5D and no binding to CHO cells expressing the human version of GPRC5A was detected (FIG. 9).
Background: ELISA stands for enzyme-linked immunosorbent assay.

T1 sequence (Q9NZD1 whole entry): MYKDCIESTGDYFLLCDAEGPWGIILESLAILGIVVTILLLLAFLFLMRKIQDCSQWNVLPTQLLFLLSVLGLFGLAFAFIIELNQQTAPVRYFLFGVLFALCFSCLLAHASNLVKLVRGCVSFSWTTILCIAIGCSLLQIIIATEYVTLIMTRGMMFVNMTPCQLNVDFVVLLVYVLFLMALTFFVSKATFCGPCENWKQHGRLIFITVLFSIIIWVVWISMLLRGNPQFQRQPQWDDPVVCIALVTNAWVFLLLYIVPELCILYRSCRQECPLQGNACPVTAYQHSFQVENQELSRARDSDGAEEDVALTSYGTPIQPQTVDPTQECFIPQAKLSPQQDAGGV
T3 sequence (Q8NFJ5 whole entry): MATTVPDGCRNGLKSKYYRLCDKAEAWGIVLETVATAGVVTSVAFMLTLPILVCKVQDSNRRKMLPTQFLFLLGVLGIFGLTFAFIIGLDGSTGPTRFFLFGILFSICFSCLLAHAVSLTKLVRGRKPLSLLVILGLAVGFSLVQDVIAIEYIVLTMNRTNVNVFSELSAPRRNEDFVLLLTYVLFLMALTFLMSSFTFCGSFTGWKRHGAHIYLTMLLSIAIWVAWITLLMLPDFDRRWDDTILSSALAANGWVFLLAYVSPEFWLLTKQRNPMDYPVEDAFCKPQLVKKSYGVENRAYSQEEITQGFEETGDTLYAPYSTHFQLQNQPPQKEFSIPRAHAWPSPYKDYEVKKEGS

B1: 5E11-TCB (bispecific antibody, human IgG1, kappa, L234A L235A)
light 1: DIVLTQSPALAVSPGQRATISCRASQSVSISGINLMNWYQQKPGQQPKLLIYHASILASGIPTRFSGSGSGTDFTLTIDPVQADDIATYYCQQTRESPLTFGSGTNLEIKRTVAAPSVFIFPPSDRKLKSGTASVVCLLNNFYPREAKVQWKVDNALQSGNSQESVTEQDSKDSTYSLSSTLTLSKADYEKHKVYACEVTHQGLSSPVTKSFNRGEC
light 2: EVQLLESGGGLVQPGGSLRLSCAASGFTFSTYAMNWVRQAPGKGLEWVSRIRSKYNNYATYYADSVKGRFTISRDDSKNTLYLQMNSLRAEDTAVYYCVRHGNFGNSYVSWFAYWGQGTLVTVSSASVAAPSVFIFPPSDEQLKSGTASVVCLLNNFYPREAKVQWKVDNALQSGNSQESVTEQDSKDSTYSLSSTLTLSKADYEKHKVYACEVTHQGLSSPVTKSFNRGEC
heavy 1: ELQLEQSGGGLVQPGGSLTLSCAASGFTFSKYAMAWVRQAPTKGLEWVASISTGGVNTYYRDSVKARFTISRDNAKNTQYLQMDSLRSEDTATYYCATHTGDYFDYWGQGVMVTVSSASTKGPSVFPLAPSSKSTSGGTAALGCLVEDYFPEPVTVSWNSGALTSGVHTFPAVLQSSGLYSLSSVVTVPSSSLGTQTYICNVNHKPSNTKVDEKVEPKSCDKTHTCPPCPAPEAAGGPSVFLFPPKPKDTLMISRTPEVTCVVVDVSHEDPEVKFNWYVDGVEVHNAKTKPREEQYNSTYRVVSVLTVLHQDWLNGKEYKCKVSNKALGAPIEKTISKAKGQPREPQVCTLPPSRDELTKNQVSLSCAVKGFYPSDIAVEWESNGQPENNYKTTPPVLDSDGSFFLVSKLTVDKSRWQQGNVFSCSVMHEALHNHYTQKSLSLSPGK
heavy 2: not shown
As to B1, in test [1], the “EC50 of T cell cytotoxicity (LDH release) on AMO-1 cells” value (“EC50 … on AMO-1 cells” for short) came to 0.014 nM, the “EC50 of T cell cytotoxicity (LDH release) on L363 cells” value (“EC50 … on L363 cells” below) is 0.012 nM, the “EC50 of T cell cytotoxicity (LDH release) on NCI-H929 cells” value (from here on “EC50 … on NCI-H929 cells”) stood at 0.007 nM and the “EC50 of T cell cytotoxicity (LDH release) on RPMI-8226 cells” value (shortened to “EC50 … on RPMI-8226 cells”) was 0.024 nM. Also, in test [2], the “EC50 of in vitro killing, AMO-1 cells” value worked out at 0.008 nM; the “EC50 of in vitro killing, EJM cells” value worked out at 0.011 nM; the “EC50 of in vitro killing, L363 cells” value stood at 0.017 nM; the “EC50 of in vitro killing, MOLP-2 cells” value is 0.018 nM. Also, in test [2], the “EC50 of in vitro killing, NCI-H929 cells” value was determined as 0.007 nM; the “EC50 of in vitro killing, OPM-2 cells” value amounted to 0.002 nM; the “EC50 of in vitro killing, RPMI cells” value came to 0.064 nM.

B2: BCMA-TCB (bispecific antibody, human IgG1, kappa, L234A L235A)
heavy 1: EVQLLESGGGLVQPGGSLRLSCAASGFTFSSYAMNWVRQAPGKGLEWVSAITASGGSTYYADSVKGRFTISRDNSKNTLYLQMNSLRAEDTAVYYCARYWPMSLWGQGTLVTVSSASTKGPSVFPLAPSSKSTSGGTAALGCLVEDYFPEPVTVSWNSGALTSGVHTFPAVLQSSGLYSLSSVVTVPSSSLGTQTYICNVNHKPSNTKVDEKVEPKSCDKTHTCPPCPAPEAAGGPSVFLFPPKPKDTLMISRTPEVTCVVVDVSHEDPEVKFNWYVDGVEVHNAKTKPREEQYNSTYRVVSVLTVLHQDWLNGKEYKCKVSNKALGAPIEKTISKAKGQPREPQVCTLPPSRDELTKNQVSLSCAVKGFYPSDIAVEWESNGQPENNYKTTPPVLDSDGSFFLVSKLTVDKSRWQQGNVFSCSVMHEALHNHYTQKSLSLSPGK
light 1: EIVLTQSPGTLSLSPGERATLSCRASQSVSAYYLAWYQQKPGQAPRLLMYDASIRATGIPDRFSGSGSGTDFTLTISRLEPEDFAVYYCQQYERWPLTFGQGTKVEIKRTVAAPSVFIFPPSDRKLKSGTASVVCLLNNFYPREAKVQWKVDNALQSGNSQESVTEQDSKDSTYSLSSTLTLSKADYEKHKVYACEVTHQGLSSPVTKSFNRGEC
heavy 2: not shown
light 2: B1 light 2
As to B2, in test [3], the “EC50 of in vitro killing, AMO-1 cells” value was 0.518 nM; the “EC50 of in vitro killing, EJM cells” value is 0.132 nM; the “EC50 of in vitro killing, L363 cells” value is 0.127 nM; the “EC50 of in vitro killing, MOLP-2 cells” value is 0.032 nM. In addition, in test [3], the “EC50 of in vitro killing, NCI-H929 cells” value was 0.311 nM; the “EC50 of in vitro killing, OPM-2 cells” value was found to be 0.033 nM; the “EC50 of in vitro killing, RPMI cells” value is 0.011 nM.

B3: 5F11-TCB (bispecific antibody, human IgG1, kappa, L234A L235A)
light 1: DIVMTQAPLSVSVTPGESASISCRSSKSLLHSNGITYVYWYFQKPGKSPQVLIYRMSNLASGVPDRFSGSGSETDFTLKISRVEAEDVGIYHCGQLLENPYTFGAGTELELKRTVAAPSVFIFPPSDRKLKSGTASVVCLLNNFYPREAKVQWKVDNALQSGNSQESVTEQDSKDSTYSLSSTLTLSKADYEKHKVYACEVTHQGLSSPVTKSFNRGEC
light 2: B1 light 2
heavy 1: EVQLVESGGGLVQPGRSLKLSCAASGFSFSNYGMAWVRQAATKGLEWVASISTGGGNTYYRDSVKGRFIVSRDNAKNTQYLQMDSLRSEDTATYYCTRHDRGGLYWGQGVMVTVSSASTKGPSVFPLAPSSKSTSGGTAALGCLVEDYFPEPVTVSWNSGALTSGVHTFPAVLQSSGLYSLSSVVTVPSSSLGTQTYICNVNHKPSNTKVDEKVEPKSCDKTHTCPPCPAPEAAGGPSVFLFPPKPKDTLMISRTPEVTCVVVDVSHEDPEVKFNWYVDGVEVHNAKTKPREEQYNSTYRVVSVLTVLHQDWLNGKEYKCKVSNKALGAPIEKTISKAKGQPREPQVCTLPPSRDELTKNQVSLSCAVKGFYPSDIAVEWESNGQPENNYKTTPPVLDSDGSFFLVSKLTVDKSRWQQGNVFSCSVMHEALHNHYTQKSLSLSPGK
heavy 2: not shown
On to B3, for which, in test [1], the “EC50 … on AMO-1 cells” value is 0.003 nM, the “EC50 … on L363 cells” value came out at 0.001 nM, the “EC50 … on NCI-H929 cells” value was 0.001 nM and the “EC50 … on RPMI-8226 cells” value was found to be 0.002 nM. Also, in test [2], the “EC50 of in vitro killing, AMO-1 cells” value amounted to 0.006 nM; the “EC50 of in vitro killing, EJM cells” value was 0.003 nM; the “EC50 of in vitro killing, L363 cells” value was found to be 0.003 nM; the “EC50 of in vitro killing, MOLP-2 cells” value is 0.001 nM. Besides, in test [2], the “EC50 of in vitro killing, NCI-H929 cells” value came to 0.004 nM; the “EC50 of in vitro killing, OPM-2 cells” value stood at 0.001 nM; the “EC50 of in vitro killing, RPMI cells” value is 0.006 nM.

B4: ET150-5-TCB (bispecific antibody, human IgG1, lambda, L234A L235A)
light 1: QSVLTQPPSASGTPGQRVTISCSGSRSNVGGNYVFWYQQVPGATPKLLIYRSNQRPSGVPDRFAGSKSGSSASLAISGLRSEDEADYYCATWDDSLSGFVFGTGTKVTVLGQPKAAPSVTLFPPSSKKLQANKATLVCLISDFYPGAVTVAWKADSSPVKAGVETTTPSKQSNNKYAASSYLSLTPEQWKSHRSYSCQVTHEGSTVEKTVAPTECS
light 2: B1 light 2
heavy 1: EVQLVESGGGLVKPGGSLRLSCAASGFTFSDYYMSWIRQAPGKGLEWVSYISSSGSTIYYADSVKGRFTISRDNAKNSLYLQMNSLRAEDTAVYYCARGYGKAYDQWGQGTLVTVSSASTKGPSVFPLAPSSKSTSGGTAALGCLVEDYFPEPVTVSWNSGALTSGVHTFPAVLQSSGLYSLSSVVTVPSSSLGTQTYICNVNHKPSNTKVDEKVEPKSCDKTHTCPPCPAPEAAGGPSVFLFPPKPKDTLMISRTPEVTCVVVDVSHEDPEVKFNWYVDGVEVHNAKTKPREEQYNSTYRVVSVLTVLHQDWLNGKEYKCKVSNKALGAPIEKTISKAKGQPREPQVCTLPPSRDELTKNQVSLSCAVKGFYPSDIAVEWESNGQPENNYKTTPPVLDSDGSFFLVSKLTVDKSRWQQGNVFSCSVMHEALHNHYTQKSLSLSPGK
heavy 2: not shown
For B4, in test [1], the “EC50 … on AMO-1 cells” value stood at 0.0835 nM, the “EC50 … on L363 cells” value is 0.768 nM, the “EC50 … on NCI-H929 cells” value worked out at 0.833 nM and the “EC50 … on RPMI-8226 cells” value is 0.797 nM.

B5: 5F11 IgG (antibody, V domains shown)
VH: EVQLVESGGGLVQPGRSLKLSCAASGFSFSNYGMAWVRQAATKGLEWVASISTGGGNTYYRDSVKGRFIVSRDNAKNTQYLQMDSLRSEDTATYYCTRHDRGGLYWGQGVMVTVSS
VL: DIVMTQAPLSVSVTPGESASISCRSSKSLLHSNGITYVYWYFQKPGKSPQVLIYRMSNLASGVPDRFSGSGSETDFTLKISRVEAEDVGIYHCGQLLENPYTFGAGTELELK
With B5, the binding result in test [4] is given as “no binding (tested: 30 µg/ml top concentration)”.

B6: 5E11 IgG (antibody, V domains shown)
VH: ELQLEQSGGGLVQPGGSLTLSCAASGFTFSKYAMAWVRQAPTKGLEWVASISTGGVNTYYRDSVKARFTISRDNAKNTQYLQMDSLRSEDTATYYCATHTGDYFDYWGQGVMVTVSS
VL: DIVLTQSPALAVSPGQRATISCRASQSVSISGINLMNWYQQKPGQQPKLLIYHASILASGIPTRFSGSGSGTDFTLTIDPVQADDIATYYCQQTRESPLTFGSGTNLEIK
Consider B6, for which the binding result in test [4] is “no binding (tested: 30 µg/ml top concentration)”.
